Experimental data from patent publication US20160311887A1 (CAMBRIDGE ENTERPRISE, published 2016).

Assays:
[1] = biological target: thrombin (UniProt P00734 328-622); test: pseudo-first-order inhibition kinetics, residual chromogenic activity
[2] = biological target: T1, activated Protein C (APC) (human, UniProt P04070 43-197; P04070 212-461); test: as above
T1 construct: also called human plasma APC

[3] = biological target: T2, fXa (UniProt P00742 41-179; P00742 235-488); test: as above
T2 construct: also called factor Xa

[4] = biological target: T2, fXa; test: single-concentration estimate (FIG. 15)
Description: 1 μM serpin was incubated with 12.5 nM protease for different amounts of time. At the indicated timepoints, the reaction was stopped by addition of an excess of chromogenic substrate (S2238 for thrombin, S2222 for fXa). The residual enzyme activity was divided by the initial enzyme activity and the natural log of this value plotted against time. The slope of these plots is the observed rate constant, kobs. To obtain an estimate of the second-order rate constant k₂, kobs was divided by the serpin concentration. […] The mutants shown all have the Pitts (M358R, P1R) mutation.
Four additional mutants were identified from this additional screen. These all had the P1R mutation and in addition had either P2RP1′A, P2RP1′Q, P2WP1′I or P2WP1′H. To verify the specificity of these mutants, an initial experiment was performed, using only one concentration of serpin and testing its inhibition of thrombin and fXa. APC inhibition was not considered at this stage, because mutants were selected based on their low inhibition of thrombin and fXa. Serpin and protease were incubated for different times and at the indicated timepoints, the reaction was stopped by addition of an excess of chromogenic substrate. Residual protease activity was divided by the initial protease activity and the natural log of this value plotted against time (FIG. 15). The slope of this line divided by the serpin concentration gives an estimate of the second-order rate constant of inhibition.

T2 sequence (P00742 41-179 limits assumed, form in doubt, chain 1 of 2): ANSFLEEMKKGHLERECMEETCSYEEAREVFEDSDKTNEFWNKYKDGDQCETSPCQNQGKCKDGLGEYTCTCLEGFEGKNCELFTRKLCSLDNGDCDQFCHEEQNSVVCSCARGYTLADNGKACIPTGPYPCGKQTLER
T2 sequence (P00742 235-488 limits assumed, form in doubt, chain 2 of 2): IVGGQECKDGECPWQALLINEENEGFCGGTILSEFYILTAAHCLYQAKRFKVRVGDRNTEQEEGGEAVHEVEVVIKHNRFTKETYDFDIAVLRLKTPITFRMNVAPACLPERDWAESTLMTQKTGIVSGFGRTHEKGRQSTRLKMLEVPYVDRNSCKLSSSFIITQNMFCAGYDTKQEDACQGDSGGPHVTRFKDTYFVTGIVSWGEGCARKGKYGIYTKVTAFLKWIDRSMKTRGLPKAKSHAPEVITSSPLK
T1 sequence (P04070 43-197, chain 1 of 2): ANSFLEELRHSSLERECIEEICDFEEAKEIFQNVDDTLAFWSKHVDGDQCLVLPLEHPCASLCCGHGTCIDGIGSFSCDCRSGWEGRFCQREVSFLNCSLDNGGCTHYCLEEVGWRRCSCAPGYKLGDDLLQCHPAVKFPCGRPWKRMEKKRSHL
T1 sequence (P04070 212-461, chain 2 of 2): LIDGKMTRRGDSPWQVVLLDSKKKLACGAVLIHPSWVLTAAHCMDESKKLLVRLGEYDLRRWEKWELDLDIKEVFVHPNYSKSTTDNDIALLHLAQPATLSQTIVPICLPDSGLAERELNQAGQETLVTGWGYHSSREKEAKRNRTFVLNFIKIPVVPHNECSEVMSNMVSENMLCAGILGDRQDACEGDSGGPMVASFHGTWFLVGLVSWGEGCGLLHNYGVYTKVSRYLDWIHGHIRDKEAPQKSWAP

B1: FL α1AT Pitts C232S P2KP1′Q (other)
chain: SDPQGDAAQKTDTSHHDQDHPTFNKITPNLAEFAFSLYRQLAHQSNSTNIFFSPVSIATAFAMLSLGTKADTHDEILEGLNFNLTEIPEAQIHEGFQELLRTLNQPDSQLQLTTGNGLFLSEGLKLVDKFLEDVKKLYHSEAFTVNFGDTEEAKKQINDYVEKGTQGKIVDLVKELDRDTVFALVNYIFFKGKWERPFEVKDTEEEDFHVDQVTTVKVPMMKRLGMFNIQHSKKLSSWVLLMKYLGNATAIFFLPDEGKLQHLENELTHDIITKFLENEDRRSASLHLPKLSITGTYDLKSVLGQLGITKVFSNGADLSGVTEEAPLKLSKAVHKAVLTIDEKGTEAAGAMFLEAIKRQIPPEVKFNKPFVFLMIEQNTKSPLFMGKVVNPTQK
second-order rate constant of inhibition [1]: 2.9 M⁻¹ s⁻¹ | second-order rate constant of inhibition [2]: 9000 M⁻¹ s⁻¹ | second-order rate constant of inhibition [3]: 170 M⁻¹ s⁻¹

B2: FL α1AT Pitts C232S P2RP1′Q (other)
chain: SDPQGDAAQKTDTSHHDQDHPTFNKITPNLAEFAFSLYRQLAHQSNSTNIFFSPVSIATAFAMLSLGTKADTHDEILEGLNFNLTEIPEAQIHEGFQELLRTLNQPDSQLQLTTGNGLFLSEGLKLVDKFLEDVKKLYHSEAFTVNFGDTEEAKKQINDYVEKGTQGKIVDLVKELDRDTVFALVNYIFFKGKWERPFEVKDTEEEDFHVDQVTTVKVPMMKRLGMFNIQHSKKLSSWVLLMKYLGNATAIFFLPDEGKLQHLENELTHDIITKFLENEDRRSASLHLPKLSITGTYDLKSVLGQLGITKVFSNGADLSGVTEEAPLKLSKAVHKAVLTIDEKGTEAAGAMFLEAIRRQIPPEVKFNKPFVFLMIEQNTKSPLFMGKVVNPTQK
second-order rate constant of inhibition [1]: 5.4 M⁻¹ s⁻¹ | second-order rate constant of inhibition [2]: 8300 M⁻¹ s⁻¹ | second-order rate constant of inhibition [3]: 130 M⁻¹ s⁻¹

B3: α1AT Pitts (P1R) mutant P2WP1′I (other)
chain: SDPQGDAAQKTDTSHHDQDHPTFNKITPNLAEFAFSLYRQLAHQSNSTNIFFSPVSIATAFAMLSLGTKADTHDEILEGLNFNLTEIPEAQIHEGFQELLRTLNQPDSQLQLTTGNGLFLSEGLKLVDKFLEDVKKLYHSEAFTVNFGDTEEAKKQINDYVEKGTQGKIVDLVKELDRDTVFALVNYIFFKGKWERPFEVKDTEEEDFHVDQVTTVKVPMMKRLGMFNIQHSKKLSSWVLLMKYLGNATAIFFLPDEGKLQHLENELTHDIITKFLENEDRRSASLHLPKLSITGTYDLKSVLGQLGITKVFSNGADLSGVTEEAPLKLSKAVHKAVLTIDEKGTEAAGAMFLEAIWRIIPPEVKFNKPFVFLMIEQNTKSPLFMGKVVNPTQK
fold reduction of the second-order rate constant compared to FL α1AT Pitts C232S [4]: ~10 fold
